Test results reported in patent publication US20230002480A1.

Key:
Experiment in all cases: cell-based or functional assay
[1] = target: HIV-1 Env of pseudovirus X2088_c9 (clade G) (HIV-1)
[2] = target: HIV-1 Env of pseudovirus CNE5 (clade CRF01_AE) (HIV-1)
[3] = target: HIV-1 Env of pseudovirus 620345.c01 (clade CRF01_AE) (HIV-1)
[4] = target: HIV-1 Env of pseudovirus P0402_c2_11 (clade G) (HIV-1)
[5] = target: HIV-1 Env of pseudovirus R3265.c06 (clade CRF01_AE) (HIV-1)
[6] = target: HIV-1 Env of pseudovirus 1006_11_C3_1601 (clade B (T/F)) (HIV-1)
[7] = target: HIV-1 Env of pseudovirus ZM109F.PB4 (clade C) (HIV-1)
[8] = target: HIV-1 Env of pseudovirus Du172.17 (clade C) (HIV-1)
[9] = target: HIV-1 Env of pseudovirus MS208.A1 (clade A) (HIV-1)
[10] = target: HIV-1 Env of pseudovirus CAP45.2.00.G3 (clade C) (HIV-1)
[11] = target: HIV-1 Env of pseudovirus ZM197M.PB7 (clade C) (HIV-1)
[12] = target: HIV-1 Env of pseudovirus 6240_08_TA5_4622 (clade B (T/F)) (HIV-1)
[13] = target: HIV-1 Env of pseudovirus ZM53M.PB12 (clade C) (HIV-1)
[14] = target: HIV-1 Env of pseudovirus WEAU_d15_410_787 (clade B (T/F)) (HIV-1)
[15] = target: HIV-1 Env of pseudovirus REJO4541.67 (clade B) (HIV-1)
[16] = target: HIV-1 Env of pseudovirus Ce2060_G9 (clade C (T/F)) (HIV-1)
[17] = target: HIV-1 Env of pseudovirus CNE52 (clade BC) (HIV-1)
[18] = target: HIV-1 Env of pseudovirus SC05_8C11_2344 (clade B (T/F)) (HIV-1)
[19] = target: HIV-1 Env of pseudovirus CNE19 (clade BC) (HIV-1)
[20] = target: HIV-1 Env of pseudovirus 1012_11_TC21_3257 (clade B (T/F)) (HIV-1)
[21] = target: HIV-1 Env of pseudovirus ZM247v1(Rev-) (clade C (T/F)) (HIV-1)

PG16 (antibody)
IC50, titer in TZM.bl cells [1]: > 50 µg/mL | IC80, titer in TZM.bl cells [1]: > 50 µg/mL | IC50, titer in TZM.bl cells [2]: 0.008 µg/mL | IC80, titer in TZM.bl cells [2]: 0.033 µg/mL | IC50, titer in TZM.bl cells [3]: > 50 µg/mL | IC80, titer in TZM.bl cells [3]: > 50 µg/mL | IC50, titer in TZM.bl cells [4]: 0.025 µg/mL | IC80, titer in TZM.bl cells [4]: 0.411 µg/mL | IC50, titer in TZM.bl cells [5]: 0.016 µg/mL | IC80, titer in TZM.bl cells [5]: 0.146 µg/mL

10E8 (antibody)
IC50, titer in TZM.bl cells [1]: > 10 µg/mL | IC80, titer in TZM.bl cells [1]: > 10 µg/mL | IC50, titer in TZM.bl cells [2]: 1.41 µg/mL | IC80, titer in TZM.bl cells [2]: 9.64 µg/mL | IC50, titer in TZM.bl cells [3]: 0.455 µg/mL | IC80, titer in TZM.bl cells [3]: 6 µg/mL | IC50, titer in TZM.bl cells [4]: 0.172 µg/mL | IC80, titer in TZM.bl cells [4]: 3.29 µg/mL | IC50, titer in TZM.bl cells [5]: > 10 µg/mL | IC80, titer in TZM.bl cells [5]: > 10 µg/mL

N49P11 (antibody)
IC50 [6]: 0.125 µg/mL | IC80 [6]: 0.487 µg/mL | MPI [6]: 100 | IC50 [7]: 5.2 µg/mL | IC80 [7]: 19.4 µg/mL | MPI [7]: 100 | IC50 [8]: 5.65 µg/mL | IC80 [8]: 17.9 µg/mL | MPI [8]: 100 | IC50 [9]: 0.259 µg/mL | IC80 [9]: 1.94 µg/mL | MPI [9]: 100 | IC50 [10]: 5.25 µg/mL | IC80 [10]: 24 µg/mL | MPI [10]: 100 | IC50 [11]: 0.303 µg/mL | IC80 [11]: 1.59 µg/mL | MPI [11]: 100 | IC50 [12]: 0.72 µg/mL | IC80 [12]: 3 µg/mL | MPI [12]: 100 | IC50 [13]: 1.05 µg/mL | IC80 [13]: 6.53 µg/mL | MPI [13]: 100 | IC50 [14]: 1.7 µg/mL | IC80 [14]: 6.02 µg/mL | MPI [14]: 100 | IC50 [15]: 10.8 µg/mL | IC80 [15]: 27.1 µg/mL | MPI [15]: 100 | IC50 [16]: 3.33 µg/mL | IC80 [16]: 13.2 µg/mL | MPI [16]: 100 | IC50 [17]: 0.06 µg/mL | IC80 [17]: 0.307 µg/mL | MPI [17]: 100 | IC50 [18]: 5.42 µg/mL | IC80 [18]: 20.5 µg/mL | MPI [18]: 100 | IC50 [19]: 0.437 µg/mL | IC80 [19]: 5.5 µg/mL | MPI [19]: 100 | IC50 [20]: 10.6 µg/mL | IC80 [20]: 29.3 µg/mL | MPI [20]: 100 | IC50 [21]: 7.48 µg/mL | IC80 [21]: 21.5 µg/mL | MPI [21]: 100

10-1074 (antibody)
IC50, titer in TZM.bl cells [1]: 0.003 µg/mL | IC80, titer in TZM.bl cells [1]: 0.014 µg/mL | IC50, titer in TZM.bl cells [2]: > 50 µg/mL | IC80, titer in TZM.bl cells [2]: > 50 µg/mL | IC50, titer in TZM.bl cells [3]: > 50 µg/mL | IC80, titer in TZM.bl cells [3]: > 50 µg/mL | IC50, titer in TZM.bl cells [4]: 0.012 µg/mL | IC80, titer in TZM.bl cells [4]: 0.039 µg/mL

PG9 (antibody)
IC50, titer in TZM.bl cells [1]: > 50 µg/mL | IC80, titer in TZM.bl cells [1]: > 50 µg/mL | IC50, titer in TZM.bl cells [2]: 0.018 µg/mL | IC80, titer in TZM.bl cells [2]: 0.051 µg/mL | IC50, titer in TZM.bl cells [3]: 1.33 µg/mL | IC80, titer in TZM.bl cells [3]: > 50 µg/mL | IC50, titer in TZM.bl cells [4]: 0.296 µg/mL | IC80, titer in TZM.bl cells [4]: 2.37 µg/mL | IC50, titer in TZM.bl cells [5]: 0.163 µg/mL | IC80, titer in TZM.bl cells [5]: 0.535 µg/mL
